The labels stand for the following.
B1: Tyrosine-protein phosphatase non-receptor type 1 (Gallus gallus (Chicken)), O13016 (parent)
chain: MEIEKEFHRLDQAASWAAIYQDIRHEASDFPCKVAKHPRNKNRNRYRDVSPFDHSRIKLNQGDNDYINASLIKMEEAQRSYILTQGPLPNTCGHFWEMVWEQKSRGVVMLNRVMEKGSIKCAQYWPRKEEKEMFFEDTNLKLTLISEDIKSYYTVRQLELENLTTQETREILHFHYTTWPDFGVPESPASFLNFLFKVRESGSLNPEYGPVVVHCSAGIGRSGTFCLVDTCLLLMDKRKDPSSVDVKQVLLEMRKYRMGLIQTADQLRFSYLAVIEGAKFIMGDASVQEQWKELSNEDLDPPPEHTPPPPRPPKRTSEMHNGRMHEHAEFFPKHQVVEEEIRCSVSTAEETVSDGRVFSSVPLITDSTSQDTEIRRRTVGENLHVTAHKEESKSESVEEDDENMMTTWKPFLVNICMFTFLTAGAYLCYRVCFH

Two variants from IntAct's records for PubMed 15226396 can be followed below.

The variants in the assay derive from B1. Particulars: with fer_human FER.
For C215S, the “effect of a mutation on the interaction” value is recorded as “disrupting interaction”. The value for Y152F was “disrupting interaction”.
